Assay results published in US20250154277A1 (CONCEPT TO MEDICINE BIOTECH, published 2025).
Substitutions are numbered along the chain they refer to.

T1: human 5T4-His protein (human, UniProt Q13641 32-355)
T1 construct: also called recombinant 5T4 protein (human 5T4-his tag); human 5T4 protein; not shown: His tag
T1 sequence (looked up): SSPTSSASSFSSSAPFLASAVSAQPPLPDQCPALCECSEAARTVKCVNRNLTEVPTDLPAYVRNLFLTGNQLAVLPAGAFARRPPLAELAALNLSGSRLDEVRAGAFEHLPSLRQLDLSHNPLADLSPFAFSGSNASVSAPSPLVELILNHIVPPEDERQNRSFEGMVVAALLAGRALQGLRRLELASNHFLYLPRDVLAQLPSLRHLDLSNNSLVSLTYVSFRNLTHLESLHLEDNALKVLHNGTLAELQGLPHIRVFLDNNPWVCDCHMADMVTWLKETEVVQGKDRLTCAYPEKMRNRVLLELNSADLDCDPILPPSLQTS

T2: cynomolgus 5T4 protein (cynomolgus monkey, UniProt Q4R8Y9 35-355, limits assumed)
T2 construct: Coated protein in ELISA; the screening step names a cyno 5T4-His protein; also called cyno 5T4; recombinant cyno 5T4-His protein
T2 sequence (looked up): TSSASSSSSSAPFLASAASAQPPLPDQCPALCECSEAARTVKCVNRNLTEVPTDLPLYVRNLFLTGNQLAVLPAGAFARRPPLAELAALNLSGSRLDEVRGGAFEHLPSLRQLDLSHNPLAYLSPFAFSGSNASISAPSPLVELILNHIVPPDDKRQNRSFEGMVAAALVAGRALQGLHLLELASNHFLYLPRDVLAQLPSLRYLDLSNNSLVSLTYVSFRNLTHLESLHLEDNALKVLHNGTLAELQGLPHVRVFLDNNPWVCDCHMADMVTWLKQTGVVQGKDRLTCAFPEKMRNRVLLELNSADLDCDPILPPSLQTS

B1: 449H9 chimeric antibody (antibody, V domains shown)
VH: QVQLQQSGAELVRPGSSVRISCKASGYAFSNYWMNWVKQRPGQGLEWIGQIYPGDGDTNYNGKFKNKATLTTDKSSSTAYMQLSSLTSEDSAVYFCARHYDYPYYYAMDYWGQGTSVTVSS
VL: DIQMTQSPSSLSASLGERVSLTCRASQDIGIALTWLQQEPDGTIKRLIYATSSLDSGVPKRFSGSRSGSDYTLTISSLESEDFVDYYCLQYIISPYTFGGGTKLEIK
notes: chimeric mAb
B2: 425G1 chimeric antibody (antibody, V domains shown)
VH: EVQLQQSGAELVKPGASVKLSCTASGFNIKDTYMHWVKQRPEQGLEWIGRIDPANGHTIFASKFQGKATITADTSSNTAYMQLSSLTSGDTAVYYCGLFTMVVVPWYFDVWGTGTTVTVSS
VL: DIVMTQSHKFMSTSVGDRVSITCKASQDVSTAVAWYQQKPGQSPKLLIYWASTRHTGVPDRFTGSGSGTDYTLTISSVQAEDLALYYCQQHYSSPLTFGAGTKLELK
notes: chimeric mAb
B3: 49C5 chimeric antibody (antibody, V domains shown)
VH: EVQLQQSGPELVKPGASVKISCKASGYTFTDYYMNWVKQSHGKSLEWIGDINPYSGGATNNQKFKGKATLTVDKSSSTAYIELRSLTSEDSAVYFCARGSIYYDSTANYFDYWGQGTTLTVSS
VL: DIQMTQSPASLSASVGETVTITCRASENIYSYLAWYQQKQGKSPQLLVYNAKSLTEGVPSRFSGSRSGTQFSLKINSLQPEDFGSYYCQHHYVTPWTFGGGTKLEIK
notes: chimeric mAb
B4: 109H7 chimeric antibody (antibody, V domains shown)
VH: QVQLQQSGAELMKPGASVKLSCKATGYTFTGYWIEWVKQRPGQGLEWIGETLPGRGSTNYNEKFKGKATFTADTSSNIVYMQLSSLTIEDSAIYYCARGRRDFDYWGQGTTLTVSS
VL: DIQMTQTTSSLSASLGDEVTISCSASQGINNYLNWYQQKPDGTVKLLIYYTSSLHSGVPSRFSGSGSGTDYSLTIINLEPEDIATYYCQQFSKLPFTFGSGTKLEIR
notes: chimeric mAb
B5: 367B8 chimeric antibody (antibody, V domains shown)
VH: QVQLQQPGTELVKPGASVKLSCKASGYTFTSYWMHWVKQRPEQGLEWIGNINPSNGNTNYNENFKSQATLTVDKSSSTAYMQLSSLTSEDSAVYYCARGGWDFDYWGQGTTLTVSS
VL: QVVLTQSPAIMSASPGEKVTMTCSASSSVRYIHWYQQRSGTSPKRWIYDTSKLTSGVPVRFSGSGSGTSYSLTISSMEAEDAATYYCQQWTSKPPWTFGGGTKLEIR
notes: chimeric mAb
B6: 353H11 chimeric antibody (antibody, V domains shown)
VH: B5 VH with G26D, N63K, S66N, Q67K, S88F
VL: B5 VL with I32M, V59A, Q89L
notes: chimeric mAb
B7: 389G2 chimeric antibody (antibody, V domains shown)
VH: B5 VH with N63R, Q67K, A92T
VL: B5 VL with Y70F, R107K
notes: chimeric mAb
B8: 119G5 chimeric antibody (antibody, V domains shown)
VH: QVQLQQSGPEVVKPGASVKISCKASGYTFTDYYMNWVKQSRGKSLEWIGDINPNNGGTNYNQKFKGKATLTVDKSSSTAYMELRSLTSEDSAVYYCAKEGPPGAMDYWGQGTSVTVSS
VL: NIVMTQTPKFLLVSAGDRVTITCKASQSVSNHVAWYQQKPGQSPKLLIYYVSNRSIGVPDRFTGSGYGTDFTFTISTVQAEDLAVYFCQQVYSSPFTFGGGTRLEMK
notes: chimeric mAb
B9: 85B10 chimeric antibody (antibody, V domains shown)
VH: B8 VH with V11L, D31A, M34V, R41H, K74M
VL: B8 VL with N1S, M4L, T20P, H32N, V51A, R54P, S55Y, I56T, S76T, R103K
notes: chimeric mAb
B10: 95F10 chimeric antibody (antibody, V domains shown)
VH: B8 VH with K13N, G66D, S77N, D90N
VL: B8 VL with S55Y
notes: chimeric mAb
B11: 493E10 chimeric antibody (antibody, V domains shown)
VH: DVQLVESGGGLVQPGGSRKLSCAASGFTFSSFGMHWVRQAPEKGLEWVAYISSGSSTIYYADTVKGRFTISRDNPKNTLFLQMTSLRSEDTAMYYCARNRAYHREAMDYWGQGTSVTVSS
VL: DIVLTQSPASLTVSLGQRATISCRASQSVSSSSYNYMHWYQQKPGQPPKLLIKSASNLESGVPARFSGSGSGTDFTLNIHPVEEEDTATYYCQHSWEIPYTFGGGTKLEIK
notes: chimeric mAb
B12: 286B4 chimeric antibody (antibody, V domains shown)
VH: DVQLHESGPGLVKPSQSLSLTCSVTGYSITNNYYWNWIRQFPGNNLEWMGYITYDGSNNYNPSLKNRISVTRDTSKNQFFLKLSSVTTEDTATYYCTRGGGQLRFDYWGQGTTLTVSS
VL: SIVMTQTPKFLIVSAGDRVTITCKASQSVSNEVTWYQQKPGQSPKMLIYYASNRYTGVPDRFTGSGYGTDFTFTINTVQAEDLAIYFCQQDYSSPWTFGGGTKLEIK
notes: chimeric mAb; also called 284B4-C

target: T1, human 5T4-His protein; test: SPR Biacore, Protein A capture
Procedure: The binding of the chimeric mAbs from these clones against recombinant 5T4 protein (human 5T4-his tag) was tested with Biacore using a capture method. The mAbs were captured using Protein A chip. A serial dilution of human 5T4-his tag protein was injected over captured antibody for 2-3 mins at a flow rate of 30 μl/min. The antigen was allowed to dissociate for 360-1000 s. All the experiments were carried out on a Biacore T200. Data analysis was carried out using Biacore T200 evaluation software.

First: B1
Second: B2
The Kd of the first is 4.3-fold lower: 0.381 nM for the first, 1.64 nM for the second.

B3 and B4 are within 1.5-fold of each other in Kd: 0.62 nM for the first, 0.606 nM for the second.

B5 and B6 are within 1.5-fold of each other in Kd: 0.285 nM for the first, 0.24 nM for the second.

Going from B7 to B8, the Kd rises from 0.49 nM to 1.22 nM (2.5-fold). The first binds more tightly here.

Compared with B9, B10 is 2.4-fold lower in Kd: 0.792 nM for the first, 0.337 nM for the second.

Compared with B11, B12 is 1.5-fold higher in Kd: 0.626 nM for the first, 0.96 nM for the second. The first binds more tightly here.

First: B1
Second: B2
The koff of the first is 1.9-fold lower: 0.000115 s⁻¹ for the first, 0.000215 s⁻¹ for the second.

B3 and B4 are within 1.5-fold of each other in koff: 0.000337 s⁻¹ for the first, 0.000391 s⁻¹ for the second.

Going from B5 to B6, the koff falls from 0.000167 s⁻¹ to 9.63e-05 s⁻¹ (1.7-fold).

B7 and B8 are within 1.5-fold of each other in koff: 0.000138 s⁻¹ for the first, 0.000159 s⁻¹ for the second.

B9 and B10 are within 1.5-fold of each other in koff: 0.000125 s⁻¹ for the first, 0.00012 s⁻¹ for the second.

First: B11
Second: B12
The koff of the first is 5.8-fold higher: 0.000402 s⁻¹ for the first, 6.99e-05 s⁻¹ for the second.

Compared with B1, B2 is 2.3-fold lower in kon: 301000 M⁻¹ s⁻¹ for the first, 131000 M⁻¹ s⁻¹ for the second.

B3 and B4 are within 1.5-fold of each other in kon: 544000 M⁻¹ s⁻¹ for the first, 645000 M⁻¹ s⁻¹ for the second.

B5 and B6 are within 1.5-fold of each other in kon: 588000 M⁻¹ s⁻¹ for the first, 401000 M⁻¹ s⁻¹ for the second.

Going from B7 to B8, the kon falls from 282000 M⁻¹ s⁻¹ to 130000 M⁻¹ s⁻¹ (2.2-fold).

First: B9
Second: B10
The kon of the first is 2.2-fold lower: 158000 M⁻¹ s⁻¹ for the first, 355000 M⁻¹ s⁻¹ for the second.

Going from B11 to B12, the kon falls from 642000 M⁻¹ s⁻¹ to 72800 M⁻¹ s⁻¹ (8.8-fold).

target: T1, human 5T4-His protein; test: ELISA, coated antigen
Procedure: (§1) ELISA testing was carried out to evaluate the binding of chimeric antibodies to human and cynomolgus, respectively. The antibody portion of naptumomab (NeoTX) that targets 5T4 (abbreviated as naptumomab in the present disclosure), was generated and used as a benchmark.
(§2) Briefly, microtiter plates were coated with human and cynomolgus 5T4 proteins at […] in PBS, 100 μl/well at 4° C. overnight, then blocked with 150 μl/well of 1% BSA. Serial dilutions of chimeric antibodies were added to each well and incubated for 1 hour at RT. The plates were washed with PBS/Tween and then incubate with mouse-anti-human IgG Fc antibody conjugated with Horse Radish Peroxidase (HRP) for 30 mins at RT. After washing, the plates were developed with TMB substrate and analyzed by spectrophotometer at OD 450 nm. All the 5T4 chimeric mAbs bound to human and cynomolgus 5T4 (FIG. 1-2 and Table 3).

B1 and B2 are within 1.5-fold of each other in EC50: 0.37 nM for the first, 0.29 nM for the second.

Compared with B3, B4 is 1.9-fold lower in EC50: 0.6 nM for the first, 0.31 nM for the second. The second is the more potent here.

B5 and B6 are within 1.5-fold of each other in EC50: 0.86 nM for the first, 0.73 nM for the second.

B7 and B8 are within 1.5-fold of each other in EC50: 0.23 nM for the first, 0.32 nM for the second.

B9 and B10 are within 1.5-fold of each other in EC50: 0.34 nM for the first, 0.24 nM for the second.

B11 and B12 are within 1.5-fold of each other in EC50: 0.28 nM for the first, 0.35 nM for the second.

target: T2, cynomolgus 5T4 protein; test: ELISA, coated antigen
Procedure: as §1, §2

Compared with B1, B2 is 2.3-fold higher in EC50: 0.1 nM for the first, 0.23 nM for the second. The first is the more potent here.

B3 and B4 are within 1.5-fold of each other in EC50: 0.18 nM for the first, 0.19 nM for the second.

B5 and B6 are the same in EC50: 0.13 nM for the first, 0.13 nM for the second.

B7 and B8 are within 1.5-fold of each other in EC50: 0.19 nM for the first, 0.2 nM for the second.

B9 and B10 are the same in EC50: 0.17 nM for the first, 0.17 nM for the second.

B11 and B12 are within 1.5-fold of each other in EC50: 0.25 nM for the first, 0.22 nM for the second.

target: T1, human 5T4-His protein; test: ELISA, coated 5T4-His
Procedure: To evaluate the binding activity of clones, the 286B4 chimeric antibody along with 286B4 humanized mAbs were subjected to ELISA test.
Briefly, microtiter plates were coated with human 5T4-His protein at 1 μg/ml in PBS, 100 μl/well at 4° C. overnight, then blocked with 150 μl/well of 1% BSA. 4-fold dilutions of tested antibodies starting from 20 nM were added to each well and incubated for 1 hour at 37° C. The plates were washed with PBS/Tween and then incubated with Goat Anti-Human IgG-HRP for 30 mins at 37° C. After washing, the plates were developed with TMB substrate and analyzed by spectrophotometer at OD 450 nm. As shown in FIG. 16 and Table 15, most of the humanized clones bound to human 5T4 with high potency.

For B12, the EC50 was 0.32 nM.

target: T1, human 5T4-His protein; test: SPR Biacore, Protein A capture; remark: another data set of the same source
Procedure: The binding of the 286B4 humanized antibodies to recombinant 5T4 protein (human 5T4-his tag) was tested with Biacore using a capture method. The mAbs were captured using Protein A chip. A serial dilution of human 5T4-his tag protein was injected over captured antibody for 3 mins at a flow rate of 30 μl/min. The antigen was allowed to dissociate for 280-800 s. All the experiments were carried out on a Biacore T200. Data analysis was carried out using the Biacore T200 evaluation software.

With B12 the Kd was 1.25 nM.

Binder B12 has a koff of 0.000113 s⁻¹.

B12 gave a kon of 90900 M⁻¹ s⁻¹.
